As usually defined, the Kd is the equilibrium constant for the complex coming apart. Low readings indicate higher affinity, high ones lower affinity.

The target of the assay is T1, B淋巴细胞刺激因子(BLyS)蛋白 (human, UniProt Q9Y275 134-285, biotinylated (生物素化, sites not stated)).
T1 construct: The protein was harvested from the culture supernatant, so it may be the soluble form; It was biotinylated for the ForteBio assay; also called BAFF; 抗原BLyS; not shown: His tag from vector p3457-his
Briefly: ForteBio (BLI): biotinylated BLyS at 20 μg/ml loaded, B-11ScFv in 2-fold dilutions from 25 to 0.78125 μg/ml in PBS pH 7.4.

T1 sequence (Q9Y275 134-285): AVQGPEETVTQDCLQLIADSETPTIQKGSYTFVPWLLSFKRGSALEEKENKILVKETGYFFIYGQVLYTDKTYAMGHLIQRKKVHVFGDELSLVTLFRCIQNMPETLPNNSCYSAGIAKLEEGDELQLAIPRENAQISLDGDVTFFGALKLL

B1: 抗BLyS单链抗体B-11ScFv (scFv, V domains shown)
VH: EVQLQESGGGLVQPGGSLRLSCAASGFTFSRYWMLWVRQAPGKGLVWVSRINTDGSSTWYADSVKGRFTISRDNAKNTLYLQMNSLRAEDTAVYYCARDQDGVGATHDYWGQGTLVTVSS
notes: Secreted from 293E cells out of plasmid p3457B-11ScFv and purified on a nickel column, about 30 kDa; also called 11号ScFv; 抗人BLyS ScFv抗体; not shown: His tag from vector p3457his (Ni column purification, anti-His blot)
For the molecule B1, the affinity, expressed as Kd, was 3.08 nM.

For the origin of these results see patent CN104628856A (INST RADIATION MED AMMS PLA; BEIJING C & N INTERNAT SCI …, dated 2015).
